# US20260097113A1 (Pfizer, published 2026)
# Positions count from the first letter of the chain named.
# B1: AM14 (trimeric prefusion specific antibody of the AM14 ELISA) (antibody, V domains shown)
# VH: EVQLVESGGGVVQPGRSLRLSCAASGFSFSHYAMHWVRQAPGKGLEWVAVISYDGENTYYADSVKGRFSISRDNSKNTVSLQMNSLRPEDTALYYCARDRIVDDYYYYGMDVWGQGATVTVSS
# VL: DIQMTQSPSSLSASVGDRVTITCQASQDIKKYLNWYHQKPGKVPELLMHDASNLETGVPSRFSGRGSGTDFTLTISSLQPEDIGTYYCQQYDNLPPLTFGGGTKVEIKR
# notes: Antibody as used in the AM14 ELISA, detected with an HRP-labeled secondary antibody
# Columns and labels:
# [1] = target: RSV A + RSV B bivalent composition (RSV subtype A; RSV subtype B); test: AM14 Fab titration by SEC; Target cycle; 1 M 25°C (second value)
# [2] = target: RSV A + RSV B bivalent composition (RSV subtype A; RSV subtype B); test: AM14 Fab titration by SEC; High-Slow 2 cycle; 1 M 40°C
# [3] = target: RSV A + RSV B bivalent composition (RSV subtype A; RSV subtype B); test: AM14 Fab titration by SEC; Target cycle; 3 M 2-8°C
# [4] = target: RSV A + RSV B bivalent composition (RSV subtype A; RSV subtype B); test: AM14 Fab titration by SEC; composition of Table 14; Freezing Ramp Aggressive cycle
# [5] = target: RSV A + RSV B bivalent composition (RSV subtype A; RSV subtype B); test: AM14 Fab titration by SEC; Target cycle; T0 (second value)
# [6] = target: T1, RSV F protein of subtype A comprising a polypeptide of SEQ ID NO: 1 and a polypeptide of SEQ ID NO: 2 (RSV subtype A, UniProt P11209 137-513; P03420 26-109); test: AM14 ELISA; F10 (pH 7, 50 mM NaCl, 4.5% sucrose); 2 wk 25°C
# T1 construct: Stabilized prefusion F trimer made of three F2-F1 heterodimers; Produced recombinantly in CHO cells; also called RSV A; RSVA
# T1 chain 1: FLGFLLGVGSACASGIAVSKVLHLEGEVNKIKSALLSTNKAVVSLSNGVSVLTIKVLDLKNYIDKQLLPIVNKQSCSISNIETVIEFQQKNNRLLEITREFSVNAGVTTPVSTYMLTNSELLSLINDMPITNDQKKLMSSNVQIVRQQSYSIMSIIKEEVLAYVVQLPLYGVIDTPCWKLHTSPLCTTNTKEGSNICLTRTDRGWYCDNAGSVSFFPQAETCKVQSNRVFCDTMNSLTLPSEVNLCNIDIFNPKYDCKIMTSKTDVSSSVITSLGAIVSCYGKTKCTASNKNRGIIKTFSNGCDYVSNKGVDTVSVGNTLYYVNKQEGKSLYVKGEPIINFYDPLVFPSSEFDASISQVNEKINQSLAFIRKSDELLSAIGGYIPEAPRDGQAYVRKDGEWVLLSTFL
# T1 chain 2: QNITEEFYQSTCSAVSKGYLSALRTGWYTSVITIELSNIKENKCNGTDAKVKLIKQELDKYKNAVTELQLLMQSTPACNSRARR
# [7] = target: T2, RSV F protein comprising a polypeptide of SEQ ID NO: 3 and a polypeptide of SEQ ID NO: 4 (RSV subtype B, UniProt O36634 137-513; O36634 26-109); test: AM14 prefusion assay relative to standard; RSV B 480 µg/mL, 2% sucrose + 4% mannitol; post-lyo T0
# T2 construct: also called RSV B; RSVB
# T2 chain 1: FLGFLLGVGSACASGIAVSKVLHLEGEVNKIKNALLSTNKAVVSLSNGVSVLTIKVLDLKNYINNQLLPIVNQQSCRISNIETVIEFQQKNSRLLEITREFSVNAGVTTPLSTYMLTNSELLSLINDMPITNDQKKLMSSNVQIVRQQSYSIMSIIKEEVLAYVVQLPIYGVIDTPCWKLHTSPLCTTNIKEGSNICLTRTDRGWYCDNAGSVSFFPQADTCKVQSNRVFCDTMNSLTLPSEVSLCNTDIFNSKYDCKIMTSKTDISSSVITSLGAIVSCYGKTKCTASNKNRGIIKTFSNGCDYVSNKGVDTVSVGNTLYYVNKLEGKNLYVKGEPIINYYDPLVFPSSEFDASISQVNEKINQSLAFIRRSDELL
# T2 chain 2: T1 chain 2 with K17R, L20F, N42T, A49T, S74N, S80N
# [8] = target: T1, RSV F protein of subtype A comprising a …; test: AM14 ELISA; F19 (pH 7, 50 mM NaCl, 3% trehalose + 3% mannitol); 2 wk 5°C
# [9] = target: T1, RSV F protein of subtype A comprising a …; test: AM14 ELISA; F13 (pH 7, 100 mM NaCl, 4.5% sucrose); 1 wk 5°C
# [10] = target: T1, RSV F protein of subtype A comprising a …; test: AM14 ELISA; F14 (pH 7, 50 mM NaCl, 4.5% sucrose); 2 wk 5°C
# [11] = target: T1, RSV F protein of subtype A comprising a …; test: AM14 ELISA; F7 (pH 6, 100 mM NaCl, 0% sucrose); 2 wk 5°C
# [12] = target: T1, RSV F protein of subtype A comprising a …; test: AM14 ELISA; F18 (pH 7, 50 mM NaCl, 3% sucrose + 3% mannitol); T0
# [13] = target: T1, RSV F protein of subtype A comprising a …; test: AM14 ELISA; F18 (pH 7, 50 mM NaCl, 3% sucrose + 3% mannitol); 1 wk 5°C
# [14] = target: T1, RSV F protein of subtype A comprising a …; test: AM14 ELISA; F16 (pH 6, 0 mM NaCl, 0% sucrose); T0
molecule,measurement,setting,value
AM14 Fab,Prefusion Content (%),[1],65%
same,Prefusion Content (%),[2],52%
same,Prefusion Content (%),[3],69%
same,Prefusion Content (%),[4],62%
same,Prefusion Content (%),[5],77%
B1,"AM14 prefusion content (%), relative to standard",[6],81%
same,"AM14 prefusion content (%), relative to standard",[7],82%
same,"AM14 prefusion content (%), relative to standard",[8],75%
same,"AM14 prefusion content (%), relative to standard",[9],76%
same,"AM14 prefusion content (%), relative to standard",[10],78%
same,"AM14 prefusion content (%), relative to standard",[11],38%
same,"AM14 prefusion content (%), relative to standard",[12],91%
same,"AM14 prefusion content (%), relative to standard",[13],56%
same,"AM14 prefusion content (%), relative to standard",[14],80%
